Measured values reported in US20020123091.

System: PRO256 polypeptide
Sequence (chain, as listed by the source): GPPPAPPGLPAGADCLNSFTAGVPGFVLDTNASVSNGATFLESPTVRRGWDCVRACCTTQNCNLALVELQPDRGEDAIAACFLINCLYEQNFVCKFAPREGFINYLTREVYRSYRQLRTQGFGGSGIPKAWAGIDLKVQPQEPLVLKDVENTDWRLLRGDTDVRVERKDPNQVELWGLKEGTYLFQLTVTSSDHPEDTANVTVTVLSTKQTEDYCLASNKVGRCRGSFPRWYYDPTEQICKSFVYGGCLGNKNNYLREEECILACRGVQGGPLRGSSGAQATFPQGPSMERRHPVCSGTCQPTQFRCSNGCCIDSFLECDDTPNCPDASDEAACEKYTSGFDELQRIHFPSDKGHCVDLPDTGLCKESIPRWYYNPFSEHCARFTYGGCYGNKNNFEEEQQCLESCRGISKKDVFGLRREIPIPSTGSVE

Sequence of human kallikrein (Haematologic Technologies) (chain, as listed by the source): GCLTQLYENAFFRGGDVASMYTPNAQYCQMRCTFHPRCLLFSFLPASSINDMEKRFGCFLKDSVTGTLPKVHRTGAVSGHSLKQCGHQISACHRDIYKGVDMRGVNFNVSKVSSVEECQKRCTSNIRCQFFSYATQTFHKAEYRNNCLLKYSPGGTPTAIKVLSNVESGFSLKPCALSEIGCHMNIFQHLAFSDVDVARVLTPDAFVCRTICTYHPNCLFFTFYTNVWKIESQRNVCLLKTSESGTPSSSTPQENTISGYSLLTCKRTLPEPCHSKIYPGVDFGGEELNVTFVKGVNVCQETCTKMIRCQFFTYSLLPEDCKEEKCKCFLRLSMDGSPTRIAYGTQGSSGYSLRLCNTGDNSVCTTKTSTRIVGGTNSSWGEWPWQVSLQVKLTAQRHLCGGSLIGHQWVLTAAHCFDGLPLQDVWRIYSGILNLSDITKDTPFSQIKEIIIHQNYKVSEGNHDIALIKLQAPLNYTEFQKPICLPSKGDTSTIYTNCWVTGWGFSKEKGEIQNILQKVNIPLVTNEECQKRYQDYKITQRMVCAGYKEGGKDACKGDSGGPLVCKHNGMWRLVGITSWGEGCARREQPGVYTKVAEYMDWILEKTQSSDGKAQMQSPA

human kallikrein (Haematologic Technologies)
kallikrein (40 nM) conversion of ^125I-scHGF into its two chain form, SDS-PAGE/autoradiography, PRO256 at 1 µM: In the presence of PRO256, kallikrein conversion of ^125I-scHGF into its two chain form is inhibited over the 4 hour incubation period compared with the control.
